Earlier results on three substances are cited in publication PMC12528258.

By Kd is commonly meant the constant that tells how readily two partners part at equilibrium.

Like-named read-outs stand apart in the source and are kept apart here.

Series [1] concerns the target H3K9me3 tail tail (Homo sapiens) (UniProt P68431).
Series [2] shares this target. The source holds these as a separate data set.
The target is the same in series [3]. The source holds these as a separate data set.
The target is the same in series [4]. The source holds these as a separate data set.

HP1α, sequence (P45973 whole entry): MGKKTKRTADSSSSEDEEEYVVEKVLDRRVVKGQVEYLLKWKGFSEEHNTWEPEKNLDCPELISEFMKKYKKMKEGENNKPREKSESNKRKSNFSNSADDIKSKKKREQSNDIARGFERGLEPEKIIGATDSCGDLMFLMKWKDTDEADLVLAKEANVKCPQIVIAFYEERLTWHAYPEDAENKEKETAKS
HP1γ, sequence (Q13185 2-183): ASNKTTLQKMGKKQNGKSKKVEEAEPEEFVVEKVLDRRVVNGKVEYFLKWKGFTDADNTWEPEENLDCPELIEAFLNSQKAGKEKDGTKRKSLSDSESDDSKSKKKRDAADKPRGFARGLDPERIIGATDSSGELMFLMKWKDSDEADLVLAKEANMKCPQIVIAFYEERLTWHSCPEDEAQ
HP1β, sequence (P83916 whole entry): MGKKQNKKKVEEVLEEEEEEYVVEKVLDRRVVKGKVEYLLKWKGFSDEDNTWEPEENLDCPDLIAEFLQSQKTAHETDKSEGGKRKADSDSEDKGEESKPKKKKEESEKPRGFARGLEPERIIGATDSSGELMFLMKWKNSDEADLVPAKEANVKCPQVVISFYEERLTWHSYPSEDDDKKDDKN

HP1γ (from UniProt Q13185): in series [1], the Kd was 12 µM.
In the case of HP1α (from UniProt P45973), the Kd in series [2] is 35 µM; in series [3], 8.3 µM.
On to HP1β (from UniProt P83916), for which the Kd in series [4] was 5.8 µM.
